One may read the Kd as a measure of binding affinity in units of concentration. High values mean weaker binding, low ones tighter binding.

The target in this assay is Idelvion (commercial albumin-fused factor IX) (human) (UniProt P02768). The assay is described as follows: SPR. (In general: In SPR one partner is held on a chip, and binding of the other changes the refractive index at the surface.)

On to “soluble monomeric human neonatal Fc receptor, His-tagged (hFcRn‐His) (from UniProt P55899;P61769)”, for which the Kd was 0.15 µM.

For the origin of these results see publication PMC8362221.
